In patent publication EP1272205B1 (The Johns Hopkins University, dated 2013):

Assays:
[1] = molecular target: SAF-2 on cells (human eosinophils, basophils, cord blood-derived mast cells; HEK293 cells transfected with full length SAF-2) (human) (UniProt Q9NYZ4); experiment: indirect immunofluorescence flow cytometry on human basophils
[2] = molecular target: T1, SAF-2 polypeptide (extracellular domain of sialoadhesin factor-2, released from SAF-2/Fc with Factor Xa) (human, UniProt Q9NYZ4 17-363); experiment: BIAcore SPR; mAb captured on rabbit anti-mouse IgG Fc surface, SAF-2 injected
T1 construct: extracellular domain; The BIAcore paragraph says only 'SAF-2 (diluted in HBS buffer)'; also called Siglec-8
T1 sequence (Q9NYZ4 17-363): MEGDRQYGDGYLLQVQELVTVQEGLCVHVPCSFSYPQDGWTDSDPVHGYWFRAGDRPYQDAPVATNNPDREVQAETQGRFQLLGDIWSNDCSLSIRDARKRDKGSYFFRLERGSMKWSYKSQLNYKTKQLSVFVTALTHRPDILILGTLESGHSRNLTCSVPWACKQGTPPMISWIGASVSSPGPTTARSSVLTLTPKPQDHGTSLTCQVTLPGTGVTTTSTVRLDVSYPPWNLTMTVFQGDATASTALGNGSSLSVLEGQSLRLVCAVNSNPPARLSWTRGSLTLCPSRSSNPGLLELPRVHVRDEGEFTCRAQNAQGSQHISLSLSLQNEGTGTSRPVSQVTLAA

[3] = molecular target: T1, SAF-2 polypeptide (extracellular domain …); experiment: BIAcore SPR; mAb captured on rabbit anti-mouse IgG Fc surface, SAF-2 injected; calculated from rates

Chain of SAF-2 on cells (human eosinophils, basophils, cord blood-derived mast cells; HEK293 cells transfected with full length SAF-2) (human) (Q9NYZ4 17-499): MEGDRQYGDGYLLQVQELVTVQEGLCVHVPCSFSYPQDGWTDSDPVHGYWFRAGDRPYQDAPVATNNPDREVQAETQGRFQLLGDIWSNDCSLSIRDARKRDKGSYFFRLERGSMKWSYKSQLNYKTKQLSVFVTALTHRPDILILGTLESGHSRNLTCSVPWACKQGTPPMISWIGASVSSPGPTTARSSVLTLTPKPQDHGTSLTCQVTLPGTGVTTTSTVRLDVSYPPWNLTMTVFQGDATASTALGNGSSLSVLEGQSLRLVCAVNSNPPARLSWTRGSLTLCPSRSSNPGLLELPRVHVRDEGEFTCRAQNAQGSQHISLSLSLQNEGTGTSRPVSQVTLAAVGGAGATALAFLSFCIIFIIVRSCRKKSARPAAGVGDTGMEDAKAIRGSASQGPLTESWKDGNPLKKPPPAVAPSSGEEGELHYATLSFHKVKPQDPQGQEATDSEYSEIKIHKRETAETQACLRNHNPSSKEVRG

B1: monoclonal antibody 2C4 (antibody, V domains shown)
VH: QVQLKESGPGLVAPSQSLSITCTVSGFSLIYGAHWVRQPPGKGLEWLGVIWAGGSTNYNSALMSRLSISKDNSKSQVFLKINSLQTDDTALYYCARDGSSPYYYSMEYWGQGTSVTVSS
VL: EIILTQSPAIMSASPGEKVSITCSATSSVSYMHWFQQKPGTSPKLWIYSTSNLASGVPVRFSGSGSGTSYSLTISRMEAEDAATYYCQQRSSYPFTFGSGTKLEIKR
notes: also called mAb 2C4
percent positive (percent positive) [1]: 21.1 | koff [2]: 4.3e-05 s⁻¹ | kon [2]: 220000 M⁻¹ s⁻¹ | Kd [3]: 0.2 nM
